Test results as given in paper PMC6423418 (Human Molecular Genetics, 2018).
“And” between values parts separate entries of the source, which are not always exact repeats. Identical values can stand only once.

How the values were obtained:
[1] = target: the molecule itself; test: negative-stain single-particle electron microscopy
[2] = target: the molecule itself; test: negative-stain single-particle electron microscopy; remark: listed apart in the source

B1: Wild-type TWINKLE lacking the mitochondrial targeting sequence (residues 1-42) (enzyme, human, UniProt Q96RR1 43-684, looked up)
chain: ETLQALDMPVLPVTATEIRQYLRGHGIPFQDGHSCLRALSPFAESSQLKGQTGVTTSFSLFIDKTTGHFLCMTSLAEGSWEDFQASVEGRGDGAREGFLLSKAPEFEDSEEVRRIWNRAIPLWELPDQEEVQLADTMFGLTKVTDDTLKRFSVRYLRPARSLVFPWFSPGGSGLRGLKLLEAKCQGDGVSYEETTIPRPSAYHNLFGLPLISRRDAEVVLTSRELDSLALNQSTGLPTLTLPRGTTCLPPALLPYLEQFRRIVFWLGDDLRSWEAAKLFARKLNPKRCFLVRPGDQQPRPLEALNGGFNLSRILRTALPAWHKSIVSFRQLREEVLGELSNVEQAAGLRWSRFPDLNRILKGHRKGELTVFTGPTGSGKTTFISEYALDLCSQGVNTLWGSFEISNVRLARVMLTQFAEGRLEDQLDKYDHWADRFEDLPLYFMTFHGQQSIRTVIDTMQHAVYVYDICHVIIDNLQFMMGHEQLSTDRIAAQDYIIGVFRKFATDNNCHVTLVIHPRKEDDDKELQTASIFGSAKASQEADNVLILQDRKLVTGPGKRYLQVSKNRFDGDVGVFPLEFNKNSLTFSIPPKNKARLKKIKDDTGPVAKKPSSGKKGATTQNSEICSGQAPTPDQPDTSKRSK
In the case of B1, the “stoichiometry N” value [1] is reported as 6 and 7, the “oligomeric state (%), heptamer” value [2] is reported as 41.1% and the “oligomeric state (%), hexamer” value [2] is reported as 58.9%.

B2: P335L TWINKLE (enzyme, human, UniProt Q96RR1 43-684, looked up)
chain: ETLQALDMPVLPVTATEIRQYLRGHGIPFQDGHSCLRALSPFAESSQLKGQTGVTTSFSLFIDKTTGHFLCMTSLAEGSWEDFQASVEGRGDGAREGFLLSKAPEFEDSEEVRRIWNRAIPLWELPDQEEVQLADTMFGLTKVTDDTLKRFSVRYLRPARSLVFPWFSPGGSGLRGLKLLEAKCQGDGVSYEETTIPRPSAYHNLFGLPLISRRDAEVVLTSRELDSLALNQSTGLPTLTLPRGTTCLPPALLPYLEQFRRIVFWLGDDLRSWEAAKLFARKLNPKRCFLVRLGDQQPRPLEALNGGFNLSRILRTALPAWHKSIVSFRQLREEVLGELSNVEQAAGLRWSRFPDLNRILKGHRKGELTVFTGPTGSGKTTFISEYALDLCSQGVNTLWGSFEISNVRLARVMLTQFAEGRLEDQLDKYDHWADRFEDLPLYFMTFHGQQSIRTVIDTMQHAVYVYDICHVIIDNLQFMMGHEQLSTDRIAAQDYIIGVFRKFATDNNCHVTLVIHPRKEDDDKELQTASIFGSAKASQEADNVLILQDRKLVTGPGKRYLQVSKNRFDGDVGVFPLEFNKNSLTFSIPPKNKARLKKIKDDTGPVAKKPSSGKKGATTQNSEICSGQAPTPDQPDTSKRSK
In the case of B2, the “stoichiometry N” value [1] is reported as 6 and 7 and 8 and 9, the “oligomeric state (%), broken ring” value [2] is reported as 6.4% and the “oligomeric state (%), heptamer” value [2] is reported as 72.3%. The “oligomeric state (%), hexamer” value [2] was 4.7%.

B3: W315L TWINKLE (enzyme, human, UniProt Q96RR1 43-684, looked up)
chain: ETLQALDMPVLPVTATEIRQYLRGHGIPFQDGHSCLRALSPFAESSQLKGQTGVTTSFSLFIDKTTGHFLCMTSLAEGSWEDFQASVEGRGDGAREGFLLSKAPEFEDSEEVRRIWNRAIPLWELPDQEEVQLADTMFGLTKVTDDTLKRFSVRYLRPARSLVFPWFSPGGSGLRGLKLLEAKCQGDGVSYEETTIPRPSAYHNLFGLPLISRRDAEVVLTSRELDSLALNQSTGLPTLTLPRGTTCLPPALLPYLEQFRRIVFWLGDDLRSLEAAKLFARKLNPKRCFLVRPGDQQPRPLEALNGGFNLSRILRTALPAWHKSIVSFRQLREEVLGELSNVEQAAGLRWSRFPDLNRILKGHRKGELTVFTGPTGSGKTTFISEYALDLCSQGVNTLWGSFEISNVRLARVMLTQFAEGRLEDQLDKYDHWADRFEDLPLYFMTFHGQQSIRTVIDTMQHAVYVYDICHVIIDNLQFMMGHEQLSTDRIAAQDYIIGVFRKFATDNNCHVTLVIHPRKEDDDKELQTASIFGSAKASQEADNVLILQDRKLVTGPGKRYLQVSKNRFDGDVGVFPLEFNKNSLTFSIPPKNKARLKKIKDDTGPVAKKPSSGKKGATTQNSEICSGQAPTPDQPDTSKRSK
With B3 the “stoichiometry N” value [1] was 7, the “oligomeric state (%), broken ring” value [2] was 12.9% and the “oligomeric state (%), heptamer” value [2] was 87.1%.

B4: S369P TWINKLE (enzyme, human, UniProt Q96RR1 43-684, looked up)
chain: ETLQALDMPVLPVTATEIRQYLRGHGIPFQDGHSCLRALSPFAESSQLKGQTGVTTSFSLFIDKTTGHFLCMTSLAEGSWEDFQASVEGRGDGAREGFLLSKAPEFEDSEEVRRIWNRAIPLWELPDQEEVQLADTMFGLTKVTDDTLKRFSVRYLRPARSLVFPWFSPGGSGLRGLKLLEAKCQGDGVSYEETTIPRPSAYHNLFGLPLISRRDAEVVLTSRELDSLALNQSTGLPTLTLPRGTTCLPPALLPYLEQFRRIVFWLGDDLRSWEAAKLFARKLNPKRCFLVRPGDQQPRPLEALNGGFNLSRILRTALPAWHKSIVPFRQLREEVLGELSNVEQAAGLRWSRFPDLNRILKGHRKGELTVFTGPTGSGKTTFISEYALDLCSQGVNTLWGSFEISNVRLARVMLTQFAEGRLEDQLDKYDHWADRFEDLPLYFMTFHGQQSIRTVIDTMQHAVYVYDICHVIIDNLQFMMGHEQLSTDRIAAQDYIIGVFRKFATDNNCHVTLVIHPRKEDDDKELQTASIFGSAKASQEADNVLILQDRKLVTGPGKRYLQVSKNRFDGDVGVFPLEFNKNSLTFSIPPKNKARLKKIKDDTGPVAKKPSSGKKGATTQNSEICSGQAPTPDQPDTSKRSK
B4 was tested, and the “stoichiometry N” value [1] was 6 and 7, the “oligomeric state (%), broken ring” value [2] was 45.2% and the “oligomeric state (%), heptamer” value [2] was 41.6%. For the same protein, the “oligomeric state (%), hexamer” value [2] was 13.2%.

B5: L381P TWINKLE (enzyme, human, UniProt Q96RR1 43-684, looked up)
chain: ETLQALDMPVLPVTATEIRQYLRGHGIPFQDGHSCLRALSPFAESSQLKGQTGVTTSFSLFIDKTTGHFLCMTSLAEGSWEDFQASVEGRGDGAREGFLLSKAPEFEDSEEVRRIWNRAIPLWELPDQEEVQLADTMFGLTKVTDDTLKRFSVRYLRPARSLVFPWFSPGGSGLRGLKLLEAKCQGDGVSYEETTIPRPSAYHNLFGLPLISRRDAEVVLTSRELDSLALNQSTGLPTLTLPRGTTCLPPALLPYLEQFRRIVFWLGDDLRSWEAAKLFARKLNPKRCFLVRPGDQQPRPLEALNGGFNLSRILRTALPAWHKSIVSFRQLREEVLGEPSNVEQAAGLRWSRFPDLNRILKGHRKGELTVFTGPTGSGKTTFISEYALDLCSQGVNTLWGSFEISNVRLARVMLTQFAEGRLEDQLDKYDHWADRFEDLPLYFMTFHGQQSIRTVIDTMQHAVYVYDICHVIIDNLQFMMGHEQLSTDRIAAQDYIIGVFRKFATDNNCHVTLVIHPRKEDDDKELQTASIFGSAKASQEADNVLILQDRKLVTGPGKRYLQVSKNRFDGDVGVFPLEFNKNSLTFSIPPKNKARLKKIKDDTGPVAKKPSSGKKGATTQNSEICSGQAPTPDQPDTSKRSK
For B5, the “stoichiometry N” value [1] was 6 and 7 and 5, the “oligomeric state (%), broken ring” value [2] was 26.9% and the “oligomeric state (%), heptamer” value [2] was 28.6%. The “oligomeric state (%), hexamer” value [2] was 33%.

B6: R334Q TWINKLE (enzyme, human, UniProt Q96RR1 43-684, looked up)
chain: ETLQALDMPVLPVTATEIRQYLRGHGIPFQDGHSCLRALSPFAESSQLKGQTGVTTSFSLFIDKTTGHFLCMTSLAEGSWEDFQASVEGRGDGAREGFLLSKAPEFEDSEEVRRIWNRAIPLWELPDQEEVQLADTMFGLTKVTDDTLKRFSVRYLRPARSLVFPWFSPGGSGLRGLKLLEAKCQGDGVSYEETTIPRPSAYHNLFGLPLISRRDAEVVLTSRELDSLALNQSTGLPTLTLPRGTTCLPPALLPYLEQFRRIVFWLGDDLRSWEAAKLFARKLNPKRCFLVQPGDQQPRPLEALNGGFNLSRILRTALPAWHKSIVSFRQLREEVLGELSNVEQAAGLRWSRFPDLNRILKGHRKGELTVFTGPTGSGKTTFISEYALDLCSQGVNTLWGSFEISNVRLARVMLTQFAEGRLEDQLDKYDHWADRFEDLPLYFMTFHGQQSIRTVIDTMQHAVYVYDICHVIIDNLQFMMGHEQLSTDRIAAQDYIIGVFRKFATDNNCHVTLVIHPRKEDDDKELQTASIFGSAKASQEADNVLILQDRKLVTGPGKRYLQVSKNRFDGDVGVFPLEFNKNSLTFSIPPKNKARLKKIKDDTGPVAKKPSSGKKGATTQNSEICSGQAPTPDQPDTSKRSK
With B6 the “stoichiometry N” value [1] was 7 and 6, the “oligomeric state (%), broken ring” value [2] was 8.3% and the “oligomeric state (%), heptamer” value [2] was 55.1%. For the same protein, the “oligomeric state (%), hexamer” value [2] was 36.6%.
